According to patent publication US20100256056A1:
Read-outs that look alike come from different tables or passages of the source.

Assays:
[1] = target: human GLP-1 (hGLP-1) receptor (human) (UniProt P43220)
[2] = target: human GLP-1 (hGLP-1) receptor (human) (UniProt P43220); remark: listed apart in the source

Chain of human GLP-1 (hGLP-1) receptor (human) (P43220 24-463): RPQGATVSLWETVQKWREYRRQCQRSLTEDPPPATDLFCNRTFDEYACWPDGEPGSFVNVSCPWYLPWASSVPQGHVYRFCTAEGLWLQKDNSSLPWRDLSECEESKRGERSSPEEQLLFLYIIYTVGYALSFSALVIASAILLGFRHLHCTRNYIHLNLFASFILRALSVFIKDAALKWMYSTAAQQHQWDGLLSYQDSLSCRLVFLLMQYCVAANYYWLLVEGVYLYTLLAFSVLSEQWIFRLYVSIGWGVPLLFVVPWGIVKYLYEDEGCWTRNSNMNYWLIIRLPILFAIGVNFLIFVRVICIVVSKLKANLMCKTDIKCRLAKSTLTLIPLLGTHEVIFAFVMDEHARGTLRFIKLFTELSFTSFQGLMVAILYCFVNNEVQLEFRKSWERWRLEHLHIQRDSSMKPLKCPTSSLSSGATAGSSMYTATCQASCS

Row | Substance | hGLP-1 cAMP* [1] | hGLP-1 cAMP* [2]
1 | [Aib^2, Nle^14, β-Ala^29, Arg^30]Exendin-4(1-30)-NH2 (peptide) | 90 | –
2 | [Aib^2,29, Nle^14, Arg^30]Exendin-4(1-30)-NH2 (peptide) | – | 95
3 | [Aib^2, Nle^14]Exendin-4(1-39)-NH2 (peptide) | 62 | –
